Data from PMC10397247.

T1: 4H342-bA
T1 chain: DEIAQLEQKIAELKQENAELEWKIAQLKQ

T2: 4H2619-bA
T2 chain: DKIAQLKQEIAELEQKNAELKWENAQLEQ

T3: 4H3070-bA
T3 chain: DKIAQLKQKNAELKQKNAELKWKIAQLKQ

T4: 4H496-bA
T4 chain: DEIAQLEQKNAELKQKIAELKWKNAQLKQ

T5: 4H2691-bA
T5 chain: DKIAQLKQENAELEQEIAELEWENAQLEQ

T6: 4H145-bA
T6 chain: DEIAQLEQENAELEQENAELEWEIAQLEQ

T7: 4H3632-bA
T7 chain: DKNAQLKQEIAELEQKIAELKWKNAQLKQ

T8: P2-AA-1HGe-W
T8 chain: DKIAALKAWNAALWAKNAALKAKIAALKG

T9: P2-AA-1HGe-D
T9 chain: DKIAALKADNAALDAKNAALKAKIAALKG

T10: P2-AA-1HGe-Q
T10 chain: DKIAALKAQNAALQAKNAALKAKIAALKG

T11: P2-AA-1HGe-M
T11 chain: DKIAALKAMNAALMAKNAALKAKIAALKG

T12: P2-AA-1HGe-A
T12 chain: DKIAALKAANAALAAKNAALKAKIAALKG

T13: P2-AA-1HGe-T
T13 chain: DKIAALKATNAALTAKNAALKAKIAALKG

T14: P2-AA
T14 chain: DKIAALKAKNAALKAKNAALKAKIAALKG


What was measured:
4H342-bA = biological target: T1, 4H342-bA; test: two-hybrid library CCNG1;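 further: natural log of median RNA to DNA barcode read ratio; higher means stronger binding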
4H2619-bA = biological target: T2, 4H2619-bA; test: two-hybrid library CCNG1;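 further: natural log of median RNA to DNA barcode read ratio; higher means stronger binding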
4H3070-bA = biological target: T3, 4H3070-bA; test: two-hybrid library CCNG1; settings: mean of both orientations;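 further: natural log of median RNA to DNA barcode read ratio; higher means stronger binding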
4H496-bA = biological target: T4, 4H496-bA; test: two-hybrid library CCNG1;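 further: natural log of median RNA to DNA barcode read ratio; higher means stronger binding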
4H2691-bA = biological target: T5, 4H2691-bA; test: two-hybrid library CCNG1
4H145-bA = biological target: T6, 4H145-bA; test: two-hybrid library CCNG1; settings: mean of both orientations
4H3632-bA = biological target: T7, 4H3632-bA; test: two-hybrid library CCNG1
P2-AA-1HGe-W = biological target: T8, P2-AA-1HGe-W; test: two-hybrid library CCmax; settings: mean of both orientations
P2-AA-1HGe-D = biological target: T9, P2-AA-1HGe-D; test: two-hybrid library CCmax; settings: mean of both orientations
P2-AA-1HGe-Q = biological target: T10, P2-AA-1HGe-Q; test: two-hybrid library CCmax; settings: mean of both orientations
P2-AA-1HGe-M = biological target: T11, P2-AA-1HGe-M; test: two-hybrid library CCmax; settings: mean of both orientations
P2-AA-1HGe-A = biological target: T12, P2-AA-1HGe-A; test: two-hybrid library CCmax; settings: mean of both orientations
P2-AA-1HGe-T = biological target: T13, P2-AA-1HGe-T; test: two-hybrid library CCmax; settings: mean of both orientations
P2-AA = biological target: T14, P2-AA; test: two-hybrid library CCmax; settings: mean of both orientations

interaction score (4H342-bA)	interaction score (4H2619-bA)	interaction score (4H3070-bA)	interaction score (4H496-bA)	interaction score (4H2691-bA)	interaction score (4H145-bA)	interaction score (4H3632-bA)	interaction score (P2-AA-1HGe-W)	interaction score (P2-AA-1HGe-D)	interaction score (P2-AA-1HGe-Q)	interaction score (P2-AA-1HGe-M)	interaction score (P2-AA-1HGe-A)	interaction score (P2-AA-1HGe-T)	interaction score (P2-AA)	Binder
-1.12	-0.672	2.5	-1.06	-0.624	-0.795	-1.06								DEIAQLEQENAELEQENAELEWEIAQLEQ [4H145-bA]
							2.3	2.01	1.9	2.29	2.28	1.98	2.14	DEIAALEAMNAALMAENAALEAEIAALEG [P1-AA-1HGe-M]
